From patent US20130137856A1, “PROTEIN BINDING DOMAINS STABILIZING FUNCTIONAL CONFORMATIONAL STATES OF GPCRS AND USES THEREOF” (priority 2010, published 2013) come the findings set out here.

The test addresses β2AR truncated after amino acid 365 (β2AR-365) having an amino terminal Flag epitope tag, native, agonist-bound or unliganded (human) (UniProt P07550). Put plainly: cell-based or functional assay.

For Gs heterotrimer, the High affinity state Ki of (-)-isoproterenol, [3H]-DHA competition binding, β2AR in HDL particles + Gs (β2AR alone: 107.5) is 1.07 nM and the fold increase of the affinity of isoproterenol is 100 fold.
